Assay results taken from the supplement of paper PMC9112550, “Optimization of the antimicrobial peptide Bac7 by deep mutational scanning” (BMC Biology, 2022).

test system: Escherichia coli TOP10; assay: shrunken log2 fold change of peptide-encoding DNA abundance (4.5 h post-induction vs induction); higher = less antimicrobial activity (less host growth inhibition); details: time post-induction: 4.5 h; library: site-saturation at positions 5, 18, 19, 20
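Further: peptides expressed intracellularly from a pBAD plasmid library in pooled LB shake-flask culture, induced with 0.3% L-arabinose, DNA abundance read by NGS, three biological replicates, DESeq2 with apeglm shrinkage.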

Row | Sequence | shrunken log2 fold change
1 | RRIRHRPPRLPRPRPRPHICPRP | -0.259
2 | RRIRHRPPRLPRPRPRPHMDPRP | -0.162
3 | RRIRHRPPRLPRPRPRPHNFPRP | -0.0184
4 | RRIRHRPPRLPRPRPRPHPGPRP | -0.0998
5 | RRIRHRPPRLPRPRPRPHPTPRP | -0.0838
6 | RRIRHRPPRLPRPRPRPHRKPRP | -0.351
7 | RRIRHRPPRLPRPRPRPHRWPRP | 0.0507
8 | RRIRHRPPRLPRPRPRPHSGPRP | -0.487
9 | RRIRHRPPRLPRPRPRPHSQPRP | -0.224
10 | RRIRHRPPRLPRPRPRPHTAPRP | -0.337
11 | RRIRHRPPRLPRPRPRPHVHPRP | -0.201
12 | RRIRHRPPRLPRPRPRPHVMPRP | -0.185
13 | RRIRHRPPRLPRPRPRPHWGPRP | -0.123
14 | RRIRHRPPRLPRPRPRPHYCPRP | -0.0453
15 | RRIRHRPPRLPRPRPRPHYIPRP | -0.35
16 | RRIRHRPPRLPRPRPRPIAVPRP | -0.219
17 | RRIRHRPPRLPRPRPRPIAWPRP | 0.0843
18 | RRIRHRPPRLPRPRPRPIDQPRP | 0.0834
19 | RRIRHRPPRLPRPRPRPIEEPRP | -0.127
20 | RRIRHRPPRLPRPRPRPIGPPRP | -0.00697
21 | RRIRHRPPRLPRPRPRPIGVPRP | 0.148
22 | RRIRHRPPRLPRPRPRPIIMPRP | -0.029
23 | RRIRHRPPRLPRPRPRPIKIPRP | -0.62
24 | RRIRHRPPRLPRPRPRPIKTPRP | -0.00476
25 | RRIRHRPPRLPRPRPRPILYPRP | -0.123

Row | Sequence | shrunken log2 fold change
26 | RRIRHRPPRLPRPRPRPINIPRP | -1.01
27 | RRIRHRPPRLPRPRPRPIRAPRP | 0.0218
28 | RRIRHRPPRLPRPRPRPIRLPRP | -0.0644
29 | RRIRHRPPRLPRPRPRPITMPRP | -0.18
30 | RRIRHRPPRLPRPRPRPIVFPRP | -0.103
31 | RRIRHRPPRLPRPRPRPIVQPRP | -0.115
32 | RRIRHRPPRLPRPRPRPIYYPRP | -0.32
33 | RRIRHRPPRLPRPRPRPKAEPRP | 0.0672
34 | RRIRHRPPRLPRPRPRPKAPPRP | 0.0258
35 | RRIRHRPPRLPRPRPRPKASPRP | -0.0128
36 | RRIRHRPPRLPRPRPRPKCAPRP | -0.0408
37 | RRIRHRPPRLPRPRPRPKCGPRP | 0.0031
38 | RRIRHRPPRLPRPRPRPKCMPRP | -0.29
39 | RRIRHRPPRLPRPRPRPKCRPRP | -0.163
40 | RRIRHRPPRLPRPRPRPKDKPRP | -0.23
41 | RRIRHRPPRLPRPRPRPKELPRP | -0.00676
42 | RRIRHRPPRLPRPRPRPKFWPRP | 0.00227
43 | RRIRHRPPRLPRPRPRPKGPPRP | 0.216
44 | RRIRHRPPRLPRPRPRPKGWPRP | 0.103
45 | RRIRHRPPRLPRPRPRPKHKPRP | -0.297
46 | RRIRHRPPRLPRPRPRPKIHPRP | -0.393
47 | RRIRHRPPRLPRPRPRPKIRPRP | -0.156
48 | RRIRHRPPRLPRPRPRPKIVPRP | 0.00911
49 | RRIRHRPPRLPRPRPRPKIYPRP | -0.296
50 | RRIRHRPPRLPRPRPRPKLWPRP | 0.392

Row | Sequence | shrunken log2 fold change
51 | RRIRHRPPRLPRPRPRPKNDPRP | -0.268
52 | RRIRHRPPRLPRPRPRPKNFPRP | -0.0655
53 | RRIRHRPPRLPRPRPRPKPAPRP | 0.0168
54 | RRIRHRPPRLPRPRPRPKQCPRP | -0.224
55 | RRIRHRPPRLPRPRPRPKQIPRP | -0.0133
56 | RRIRHRPPRLPRPRPRPKREPRP | -0.0483
57 | RRIRHRPPRLPRPRPRPKRNPRP | 0.0354
58 | RRIRHRPPRLPRPRPRPKSKPRP | -0.598
59 | RRIRHRPPRLPRPRPRPKWEPRP | -0.000889
60 | RRIRHRPPRLPRPRPRPKWTPRP | 0.0551
61 | RRIRHRPPRLPRPRPRPLAEPRP | 0.243
62 | RRIRHRPPRLPRPRPRPLANPRP | -0.263
63 | RRIRHRPPRLPRPRPRPLCVPRP | 2.97
64 | RRIRHRPPRLPRPRPRPLDCPRP | -0.384
65 | RRIRHRPPRLPRPRPRPLEKPRP | -0.1
66 | RRIRHRPPRLPRPRPRPLETPRP | -0.47
67 | RRIRHRPPRLPRPRPRPLFDPRP | -0.692
68 | RRIRHRPPRLPRPRPRPLFRPRP | 0.0546
69 | RRIRHRPPRLPRPRPRPLGHPRP | -0.499
70 | RRIRHRPPRLPRPRPRPLGYPRP | -0.0228
71 | RRIRHRPPRLPRPRPRPLHLPRP | -0.0926
72 | RRIRHRPPRLPRPRPRPLKAPRP | -0.364
73 | RRIRHRPPRLPRPRPRPLKHPRP | -0.869
74 | RRIRHRPPRLPRPRPRPLLIPRP | -0.516
75 | RRIRHRPPRLPRPRPRPLMGPRP | 0.11
